Assay results from paper PMC11012335.

Legend:
Assay in all cases: EMSA
[1] = target: Hfq Y25D* Y25D (Escherichia coli K-12 MG1655) (UniProt P0A6X3); details: EMSA: 20 mM Tris-HCl pH 7.6, 0.5 M NaCl, 1 mM EDTA, 1% glycerol, 20 min at 25 C; native PAGE in 0.5x TBE at 4 C
[2] = target: Hfq Q8A Q8A (Escherichia coli K-12 MG1655) (UniProt P0A6X3); details: EMSA: 20 mM Tris-HCl pH 7.6, 0.5 M NaCl, 1 mM EDTA, 1% glycerol, 20 min at 25 C; native PAGE in 0.5x TBE at 4 C
[3] = target: Hfq K56A/H57A K56A;H57A (Escherichia coli K-12 MG1655) (UniProt P0A6X3); details: EMSA: 20 mM Tris-HCl pH 7.6, 0.5 M NaCl, 1 mM EDTA, 1% glycerol, 20 min at 25 C; native PAGE in 0.5x TBE at 4 C
[4] = target: Hfq K56A K56A (Escherichia coli K-12 MG1655) (UniProt P0A6X3); details: EMSA: 20 mM Tris-HCl pH 7.6, 0.5 M NaCl, 1 mM EDTA, 1% glycerol, 20 min at 25 C; native PAGE in 0.5x TBE at 4 C
[5] = target: Hfq H57A H57A (Escherichia coli K-12 MG1655) (UniProt P0A6X3); details: EMSA: 20 mM Tris-HCl pH 7.6, 0.5 M NaCl, 1 mM EDTA, 1% glycerol, 20 min at 25 C; native PAGE in 0.5x TBE at 4 C
[6] = test system: Hfq Q8A (Escherichia coli K-12 MG1655); details: EMSA: 20 mM Tris-HCl pH 7.6, 0.5 M NaCl, 1 mM EDTA, 1% glycerol, 20 min at 25 C, native PAGE in 0.5x TBE at 4 C
[7] = test system: Hfq K56A (Escherichia coli K-12 MG1655); details: EMSA: 20 mM Tris-HCl pH 7.6, 0.5 M NaCl, 1 mM EDTA, 1% glycerol, 20 min at 25 C, native PAGE in 0.5x TBE at 4 C
[8] = test system: Hfq Y25D* (Escherichia coli K-12 MG1655); details: EMSA: 20 mM Tris-HCl pH 7.6, 0.5 M NaCl, 1 mM EDTA, 1% glycerol, 20 min at 25 C, native PAGE in 0.5x TBE at 4 C
[9] = test system: Hfq K56A/H57A (Escherichia coli K-12 MG1655); details: EMSA: 20 mM Tris-HCl pH 7.6, 0.5 M NaCl, 1 mM EDTA, 1% glycerol, 20 min at 25 C, native PAGE in 0.5x TBE at 4 C
[10] = test system: Hfq H57A (Escherichia coli K-12 MG1655); details: EMSA: 20 mM Tris-HCl pH 7.6, 0.5 M NaCl, 1 mM EDTA, 1% glycerol, 20 min at 25 C, native PAGE in 0.5x TBE at 4 C

Work on “GGGAACACAUCAGAUUUCCUGGUGUAACGAAUUUUUUAAGUGCUUCUUGCUUAAGCAAGUUUCAUCCCGACCCCCUCAGGGUCGGGAUUU [DsrA]” yielded a binding signal (% of WT Hfq binding) [1] of 163, a binding signal (% of WT Hfq binding) [2] of 46.9 and a binding signal (% of WT Hfq binding) [3] of 13.2. The binding signal (% of WT Hfq binding) [4] was 24.4 and the binding signal (% of WT Hfq binding) [5] was 66.5.

With RNA I FL the binding signal (% of WT Hfq binding) ([6]; 130/260 nM Hfq monomer) was 86.5, the binding signal (% of WT Hfq binding) ([7]; 130/260 nM Hfq monomer) was 36.1 and the binding signal (% of WT Hfq binding) ([8]; 130/260 nM Hfq monomer) was 125. The binding signal (% of WT Hfq binding) ([9]; 130/260 nM Hfq monomer) was 13.8 and the binding signal (% of WT Hfq binding) ([10]; 130/260 nM Hfq monomer) was 72.7.

With DsrA the binding signal (% of WT Hfq binding) ([6]; 43/174 nM Hfq monomer) was 46.9, the binding signal (% of WT Hfq binding) ([7]; 43/174 nM Hfq monomer) was 24.4 and the binding signal (% of WT Hfq binding) ([8]; 43/174 nM Hfq monomer) was 163. The binding signal (% of WT Hfq binding) ([9]; 43/174 nM Hfq monomer) was 13.2 and the binding signal (% of WT Hfq binding) ([10]; 43/174 nM Hfq monomer) was 66.5.
